Test results published in US20190300616A1.

How the values were obtained:
[1] = molecular target: Pngase F-treated rhIL13Rα2hFc (human) (UniProt Q14627); assay: plate-bound ELISA, Pngase F-treated rhIL13Rα2hFc
[2] = molecular target: recombinant human IL13Rα2hFc chimera (human) (UniProt Q14627); assay: SPR, Biacore 3000; mAb immobilized, rhIL13Rα2 injected; 1:1 model
[3] = molecular target: human wild-type IL13Rα2 expressed on the cell surface (human) (UniProt Q14627); assay: flow cytometry (APC-A), N10 glioma cells
[4] = molecular target: human wild-type IL13Rα2 expressed on the cell surface (human) (UniProt Q14627); assay: flow cytometry (APC-A), N10 glioma cells pre-incubated with 10x excess rhIL13, then mIgG
[5] = molecular target: recombinant human IL13Rα2hFc chimera (human) (UniProt Q14627); assay: plate-bound ELISA on rhIL13Rα2hFc

Chain of recombinant human IL13Rα2hFc chimera (human) (Q14627 27-343 limits assumed, stated change not applied): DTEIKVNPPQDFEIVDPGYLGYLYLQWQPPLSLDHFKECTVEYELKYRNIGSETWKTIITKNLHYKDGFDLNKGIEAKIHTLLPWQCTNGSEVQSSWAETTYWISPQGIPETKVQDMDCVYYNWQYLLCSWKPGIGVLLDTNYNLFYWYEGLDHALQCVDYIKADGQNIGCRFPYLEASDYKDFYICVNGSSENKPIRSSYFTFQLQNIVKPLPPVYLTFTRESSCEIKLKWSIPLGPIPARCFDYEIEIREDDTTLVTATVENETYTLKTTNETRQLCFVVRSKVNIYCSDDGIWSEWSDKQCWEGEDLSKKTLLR
Chain of human wild-type IL13Rα2 expressed on the cell surface (human) (Q14627 27-380): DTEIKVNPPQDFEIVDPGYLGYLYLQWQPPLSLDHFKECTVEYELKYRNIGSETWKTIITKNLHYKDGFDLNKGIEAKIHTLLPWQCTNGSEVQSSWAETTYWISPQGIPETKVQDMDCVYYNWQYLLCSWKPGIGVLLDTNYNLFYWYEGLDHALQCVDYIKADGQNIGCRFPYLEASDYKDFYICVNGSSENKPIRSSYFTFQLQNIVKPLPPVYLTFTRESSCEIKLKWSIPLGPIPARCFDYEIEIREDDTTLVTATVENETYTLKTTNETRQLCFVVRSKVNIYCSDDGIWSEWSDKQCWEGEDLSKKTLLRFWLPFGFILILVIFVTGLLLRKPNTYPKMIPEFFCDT
Chain of Pngase F-treated rhIL13Rα2hFc (human) (Q14627 27-343 limits assumed): as the sequence (Q14627 27-343 limits assumed, stated change not applied) above

mAb to IL13Rα2 (clone 83807) (antibody)
percent decrease of binding against untreated protein [1]: 80% | Kd [2]: 104 nM | koff [2]: 0.00231 s⁻¹ | kon [2]: 22300 M⁻¹ s⁻¹

mIgG (antibody)
% positive cells [3]: 1.9% | % positive cells [4]: 0.9%

monoclonal antibody to IL13Rα2 (clone B-D13)
EC50 (read off the curve) [5]: 0.2 µg/mL | Kd [2]: 46.1 nM | koff [2]: 0.00499 s⁻¹ | kon [2]: 108000 M⁻¹ s⁻¹
